Measured values taken from the DeepSol protein solubility set.

Assay: soluble on expression in E. coli; label from the status in PepcDB or PDB records

Sequence | soluble on expression in E. coli
MAHHHHHHMPQCGTEKHVSAPPSYTGPFVAVVVDLDGTILDDNHRVSDVTKATLYEVASCGVHIIIATGRPREGVAAIEQELNSYFRCNSRVPGRATSLAEVKGFHLVASNGARIYNTTGELISAESIDNSVVRAIYERVTESNINANSEDSMLVSVHQTGAWWVNNVLPEEWLRRKYGTLPEVRQNLSDFPTDGVGKICLRSFNEGTLRTFQKELDTKYEHYITTVMTSDHCLDIMPKGVSKASALRMVGEILNFEPHRDAIAFGDSLNDRDMLESVAKGCIMKNGKNELKELLPHVEVVGCNEEDGVAHKLREVFLLS | not soluble
MAHHHHHHMPRGGHKGGLFPVSGIKWGMNERIKKRGLYHNRREDILTPRWGYRYENENKKYLPDGSSKSFDIDSSRAWPVDKAQWKYYYNINESRYLWPSICANNPEIKNYILNIIENTDTYFSGIGLEQVSNERKNKNLKKDYTNNSYYKNNYLYNLVHELNNTIYPQIEINLNNNLKRGRIQKLYDIIKEENIWKTTQKIKTPESENVFPYVDDNATLIRELPLSEILYTKSNLRLKVRRHPKWMNVQFLKKKVKIPYLYR | not soluble
MAHHHHHHMPSEYHSSLADVSPRLSSRQRCSVRAGLSSTPRHAQGRRHLDPHHFTNLTDDAKRAEGRLGRAHVASSEQQKRADAYYATKQATVAQPPGAECNLYLKSYYYTPLSKQETPSPPPRPTTGFRADAQSTSFQLAEARLRKIKREHPQYEEEVTRALQQQHGDYSIVSTEQKISRRIAVEEYADGTNARMAQIEASTKYRGTPDLGSPAPAIKRSVPYALSEECPPRADTQLSCTSHVRLYPGCGRSSFPPETPVKPRARHLYDGPVPYDTTAASGEAYPSPPAVGERCNIYAKPTLVHVDERRHRDCVEDADSLAMKRARARSGARASQERPDFIFGPGPAPQPRPPSLRHHTEARWKAQERNAENRRTGRALYPQSHRSTSLW | not soluble
MAHHHHHHMPSGERRGRVGPVRFRTFLRNTVLDVMRSRGWLETDSDLGWDLFWADVGWIREVHDHVRLDDVQRINHFRNHFELTRKDFMVKNLKRMRKSLEREGRLEEATEFDFFPVTFSLPQDYGMFETEFRRQPNAIWIMKPPAKAQGKGIFLFSKISQIAEWRKDYKQRQVGAVGEKAGGPYGAEQVEPYLAQRYIENPHLVGGKKYDLRVYVLVTCYSPLTVWLHRTGFARFCHQRFSLRDIENTFIHVTNVAVQKTNPKYTPSSGCKYGLRNLRQYITASRGVETAQKLFDDIQNMILRSLHAVQKIIVQDKHCFELYGYDIMVDNDLHPWLIETNASPSLSAETPADYHLKFNMLEDMFSVIDIEKRRTGDEIRVGGFDLIWKNGPVGPACRGDAKGGGVTQSFLGCANELEIPISHMRMPPRLQQMDSSERLLT | not soluble
MAHHHHHHMPTPRETVVAFLTQACCGTIVALHRMGGMEVMLYKEQLVVMLTRYFNSCWNSLLSGDDPYVVESFNMMKHDNPGCVMRYLFSVGTSVLPDEPPQEIARYSPEDTDDLEAARVTISETLQQLLAERIAVDPFQHSCEGLSLSAERTAWSEKGCPPQNFFEIS | soluble
MAHHHHHHMPTSSGVDQAKLREVIRVLKSVGHVGMAESLEVEWGMKPNTAAHAKNAKKGRKSLPHKSRESSKARGNSFPSLSSIAVAPSPLQVTSQSRFVVTCIGDEEDLWSPDEDPADAKRCIAPLFDYGAGLLRDHYAEYAAHPVSFVSVHPYEKQQPPSNLPWRHFELKVFYEAGKTGSEEKKEFELVKGDLIGGRYHVDAPIDAATFSRTVRCYDEQTGQPVCLKIIRNSKTFLDQGLDELRALTCVNDAGDADACCVVRLLDYFYFREHLVLVTELLFDNLYEYARKLDIVERCAYFTLARLQRIVRQVLTALKLIHSVNLIHCDIKPENIAFKSVSDCDVKVLDLGSSCYMTDTLSSYVQSRSYRAPEVILGCKYGPAVDIWSLGATAAELATGTVLFNVESVPTMLASIASVCGPIPAEMLQEGRNTSLYVTQHGAFYDYEDEQLVFHFPSEPPDAAVLFGFDDHDYVDFVRLCLTLDAALRPSAAQLLDHPFLTKTYTD | not soluble
MAHHHHHHMPVSHHEGCGCKNSDEVLKGGEFLLKYINIDKVTALNEKTHGSCRKILKSYDNRLSPDNCESDVDHELIINIPFNSPCKISSLFLIGGEEGTYPRKIKIFSNREDIDFGNINDFKCVQELELSQDFHGSIEYPLKVTSLFNVSYLTLYFYENYGADTTKIFYIGLKGVGTNYIRKAVETVYEASPNLSDHKIEGSSKAAHFRFDAF | soluble
MAHHHHHHMQDEHKFNAEDRRRAPPPNTPERALDYHERTNDDKLIAHASQVNHLSKPRHRNCLTEFIIVETPVVSFLVDSSDPSLCLLRRSGRQGTKNEEKGVH | soluble
MAHHHHHHMQTATAPFILRSLYKDAYISDMQIARPITELMMNTIGAQLTNKYDTHIPAIACSLYTLFSMSRVQTLGQEFCDLLPVVKAHPWQPVGPARVLLLAVLQLVEPTAVFVVARKLFPDLSTADVEEVLRKAVLCALFLFERFGTLPHRIARVRFLSLKPSRTLQDSDGAPGSYLVLGLVLLVELVVRLWRYSKERTSREAKRSTEAAVITSSDEDAEDARSGKCMLCLSNRKCPTATNCGHIFCWRCIAEWIQSNPQEAVCPFCRQHITTQSLVPLYFYVAKEPPRVGTATDAAAPPAA | soluble
MAHHHHHHMREARERARIAEAEADSAMEAADRAILEELLRKDEEERRAAAEREAAARRAAEERAAAERLKAEDEARQAAEAARQRALEEERQRQRESAKQAAKSQLHDEPSTDVATSETVQISVRCPSGKHYDRRFLRSDLVDQLTFFVLTLDEVADATDASTVRFVTGFPPAPLVWREGETRFGDVKSLCPRAVVLLRRL | not soluble
MAHHHHHHMRFFKSDGTPYNSDMTDTLHGSEYVHRGGVEAIVEGVAAGQYAEHKPRAIMFVNKRPVEIIPQEENLLEVLEREGIRVPKFCYHPILSVAGNCRMCLVQVDGTQNLVVSCATVALPGMSIITDSRLVRDAREGNVELILINHPNDCPICEQATNCDLQNISMNYGTDIPRYKEDKRAVQDFYFDPQTRVVLNRCIHCTRCVRFLNEHAQDFNLGMIGRGGLSEISTFLDELEVKTDNNMPVSQLCPVGKLYLGDADENNAVADELDASEQAYAVATS | soluble
MAHHHHHHMRGQRSGKFAEYTATYAILKRIGLHQTVLIEKRDASVGYGVYVRDACDSGTPLLVVPSRHAFSLSTVQKLGARVRQEDLMQSPQLEILNRGVLSRLLGCTAGEWISLAWRLAIEHQRSLSPWWGWLNVLPRMQDFRTMEDESGRQCRLHRVQLLPYFIEVQGSMQEEICSAYEVLSEKNLMPSPNHFRWAVDVILTRSHRLPACWTNGEGSSVELGIIPFVDLVNGDDGGERRRNARVEVAFEVEELPRWYRDEFLQESERRHVNGEEALRRLLEEHFFALVALERDLTASEEVIMEYELVPWVTGALSHEDDLLLGRLLRYRF | not soluble
MAHHHHHHMRGQSSFSSIGEKPNALRDANDVTPMDTRHLHATCAAEEITHNTGANKKRQRGCRTPLMNAGDGSSIHSATSHQSSQAAHRTADAPSDISNRPTQSSGRAMELIRQRRSTVVRRITDIPALGQSHKEGERCGLINVGAVNVEAENAPSEQFSTFFSFFFFCRTHEQPMNEESCAALLVGILEVAPSTRPRHTRMLRSTLEMNRTPLEMVILGLQKIASRWETKQARPLTKEWLNQPIRSRTDWKERVVFRLVWITASRLFEIVALTPKNVTLEPNGTLILYWPVAPKTARADPHCASRFVGMRGQDAFDIIKLCMTL | not soluble
MAHHHHHHMRRGGTVVFQRHRVSGGISRANEMSAFARLRGGQQKTETDWVPTLLLSGETPPPIARPAETAAFFLASFDPFVFSYCMFDFPTILHHAGELSEHELLDYPGSMLMSPRSLFLQPTAHLRFGSERQQRMAVVLQSLLDRHDESERSPVPCARALGVQCPLFVPFLRGVCLCVETQHPFAPQAAYVFEELLASGFVSSTLYLDGTYVDRNRTLAQIVQLAAREFGSESALFTGLLLDEEHASPPETIAVGRLVAQTLAAADRRRLDWALKTRGAVRQRLVPQHGWTLGPSPSLLSTAQQ | soluble
MAHHHHHHMRRTGIRRVAPWVPPPRHDVKVTMPPPPGGEVGGSFGVSIGYSDRIACTPYWKRMALSNYALRMKENATRYPMSEHRPGEYDIRYLPKPYPCTIRNRPLLEVGEPRQIPSIQIPVIFLVNLYNEEKNSWFGRKYETVYVSRQFMREELMPQRYAIYATPEAYALLGLPVVDHGIHKEIPKTPREYEKLLERQKYDEERWKYSIEYLFRKYEAGPPELLDRAEDTWDGTEVLAVSSTAGAARHGEAVQRKGAIKHRKARKIKLF | not soluble
